In patent publication US20180066058A1 (published 2018):
Changes are numbered by the printed parent chain.

T1: human ICOS-mFc (Chimerigen) (human, UniProt Q9Y6W8 21-140)
T1 construct: also called human ICOS receptor; human ICOS Receptor; not shown: mouse Fc of the bought construct
T1 sequence: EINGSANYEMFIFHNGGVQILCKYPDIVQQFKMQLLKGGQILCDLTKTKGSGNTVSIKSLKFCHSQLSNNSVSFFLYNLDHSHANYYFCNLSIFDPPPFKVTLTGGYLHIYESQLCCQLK

T2: mouse ICOS-mFc (Chimerigen) (mouse, UniProt Q9WVS0 21-141, limits assumed)
T2 construct: also called mouse ICOS receptor; mouse ICOS Receptor; not shown: mouse Fc of the bought construct
T2 sequence: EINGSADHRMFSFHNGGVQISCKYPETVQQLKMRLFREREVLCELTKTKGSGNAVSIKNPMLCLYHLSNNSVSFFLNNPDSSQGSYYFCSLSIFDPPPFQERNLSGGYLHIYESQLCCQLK

B1: STIM006 human IgG1 (antibody, V domains shown)
VH: QVQLVESGGGLVKPGGSLRLSCAASGFTFSDYFMSWIRQAPGKGLEWISYISSSGSTIYYADSVRGRFTISRDNAKYSLYLQMNSLRSEDTAVYYCARDHYDGSGIYPLYYYYGLDVWGQGTTVTVSS
VL: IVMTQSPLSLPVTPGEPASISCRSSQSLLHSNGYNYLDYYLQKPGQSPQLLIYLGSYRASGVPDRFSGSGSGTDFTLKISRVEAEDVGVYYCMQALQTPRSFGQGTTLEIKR
notes: Human IgG1 format
B2: STIM005 human IgG1 (antibody, V domains shown)
VH: QVQLVQSGAEVKKPGASVKVSCKASGYTFNSYGIIWVRQAPGQGLEWMGWISVHNGNTNCAQKLQGRVTMTTDTSTSTAYMELRSLRTDDTAVYYCARAGYDILTDFSDAFDIWGHGTMVTVSS
VL: DIQMTQSPSSLSASVGDRVTITCRASQNINNFLNWYQQKEGKGPKLLIYAASSLQRGIPSTFSGSGSGTDFTLTISSLQPEDFATYICQQSYGIPWVGQGTKVEIKR
notes: Human IgG1 format
B3: STIM004 human IgG1 (antibody, V domains shown)
VH: EVQLVESGGGVVRPGGSLRLSCAASGLTFDDYGMSWVRQVPGKGLEWVSGINWNGDNTDYADSVKGRFTISRDNAKNSLYLQMNSLRAEDTALYYCARDYYGSGSYYNVPFDYWGQGTLVTVSS
VL: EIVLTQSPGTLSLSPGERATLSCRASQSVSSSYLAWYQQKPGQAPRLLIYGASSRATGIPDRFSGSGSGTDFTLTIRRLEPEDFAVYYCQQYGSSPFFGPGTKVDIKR
notes: Human IgG1 format
B4: STIM002 human IgG1 (antibody, V domains shown)
VH: QVQLVQSGGEVKKPGASVKVSCKASGYTFTSYGFSWVRQAPGQGLEWMGWISAYNGNTNYAQKLQGRVTMTTDTSTSTAYMELRSLRSDDTAVYYCARSTYFYGSGTLYGMDVWGQGTTVTVSS
VL: DIVMTQSPLSLPVTPGEPASISCRSSQSLLHSDGYNYLDWYLQKPGQSPQLLIYLGSTRASGFPDRFSGSGSGTDFTLKISRVEAEDVGVYYCMQALQTPLSFGQGTKLEIKR
notes: Human IgG1 format
B5: STIM002-B human IgG1 (antibody, V domains shown)
VH: B4 VH
VL: B4 VL with Y37C, L101C
notes: Human IgG1 format
B6: STIM009 human IgG1 (antibody, V domains shown)
VH: QVQLVESGGGLVKPGGSLRLSCAASGFTFSDYYMSWIRQAPGKGLEWVSYISSSGSTIYYADSVKGRFTISRDNAKNSLYLQINSLRAEDTAVYYCARDFYDILTDSPYFYYGVDVWGQGTTVTVSS
VL: not shown
notes: Human IgG1 format
B7: STIM003 human IgG4.PE (antibody, V domains shown)
VH: B3 VH with A23V, L27V, V40A, D56G, N57D, A61S, Y100F, N108H, T118I
VL: EIVLTQSPGTLSLSPGERATLSCRASQSVSRSYLAWYQQKRGQAPRLLIYGASSRATGIPDRFSGDGSGTDFTLSISRLEPEDFAVYYCHQYDMSPFTFGPGTKVDIK
notes: Human IgG4.PE (null-effector) format
B8: STIM002-B human IgG4.PE (antibody, V domains shown)
VH: B4 VH
VL: DIVMTQSPLSLPVTPGEPASISCRSSQSLLHSDGYNCLDWYLQKPGQSPQLLIYLGSTRASGFPDRFSGSGSGTDFTLKISRVEAEDVGVYYCMQALQTPCSFGQGTKLEIK
notes: as for B7
B9: STIM009 human IgG4.PE (antibody, V domains shown)
VH: B6 VH
VL: not shown
notes: as for B7
B10: STIM001 human IgG4.PE (antibody, V domains shown)
VH: QVQVVQSGAEVKKPGASVKVSCKASGYTFSTFGITWVRQAPGQGLEWMGWISAYNGDTNYAQNLQGRVIMTTDTSTSTAYMELRSLRSDDTAVYYCARSSGHYYYYGMDVWGQGTTVTVSS
VL: DIVMTQSPLSLPVTPGEPASISCRSSQSLLHSNEYNYLDWYLQKPGQSPQLLIFLGSNRASGVPDRFSGSGSGTDFTLKITRVEAEDVGIYYCMQSLQTPLTFGGGTKVEIK
notes: as for B7

target: T1, human ICOS-mFc (Chimerigen); assay: HTRF neutralisation of Alexa 647 human B7-H2 binding to human ICOS-mFc; human IgG1; mean, n = 4
Protocol: (§1) 5 μl of ICOS receptor (human ICOS-mFc, 20 nM, 5 nM final or mouse ICOS-mFc 4 nM, 1 nM final (Chimerigen)) was added to required wells. Plate was incubated for 1 hr at room temperature (RT).
(§2) Finally, 5 μl of anti-mouse IgG donor mAb (Southern Biotech) labelled with europium cryptate (Cis Bio), 40 nM, 10 nM final was added to each well and the assay was left in the dark at RT to incubate for a further 2 hours. After incubation, assay was read on Envision plate reader (Perkin Elmer) using a standard HTRF protocol. […] Titration curves and IC50 values [M] were plotted using Graphpad (Prism). IC50 values were calculated by first transforming the data using equation X=Log(X). The transformed data was then fitted using nonlinear regression, using fitting algorithm, log (inhibitor) vs. response—variable slope (four parameters).

Row | IC50 [nM] | Binder
1 | 2.2 | B1
2 | 2.5 | B2
3 | 233 | B3
4 | 1.9 | B4
5 | 3.6 | B5
6 | 30.5 | B6

target: T2, mouse ICOS-mFc (Chimerigen); assay: HTRF neutralisation of Alexa 647 mouse B7-H2 binding to mouse ICOS-mFc; human IgG1; mean, n = 3
Protocol: as §1, §2

Row | IC50 [nM] | Binder
7 | 0.3 | B2
8 | 22.1 | B3
9 | 6.9 | B4
10 | 30 | B5

target: T1, human ICOS-mFc (Chimerigen); assay: HTRF neutralisation of Alexa 647 human B7-H2 binding to human ICOS-mFc; human IgG4.PE; mean, n = 4
Protocol: as §1, §2

Row | IC50 [nM] | Binder
11 | 1.2 | B7
12 | 3.4 | B8
13 | 4.6 | B9
14 | 1.3 | B10

target: T2, mouse ICOS-mFc (Chimerigen); assay: HTRF neutralisation of Alexa 647 mouse B7-H2 binding to mouse ICOS-mFc; human IgG4.PE; mean, n = 3
Protocol: as §1, §2

Row | IC50 [nM] | Binder
15 | 0.2 | B7
16 | 43.9 | B8
17 | 4.7 | B10
